In the supplement of paper PMC9112550, “Optimization of the antimicrobial peptide Bac7 by deep mutational scanning” (BMC Biology, 2022):

Test system: Escherichia coli TOP10
Experiment: shrunken log2 fold change of peptide-encoding DNA abundance (4.5 h post-induction vs induction); higher = less antimicrobial activity (less host growth inhibition)
Settings: time post-induction: 4.5 h; library: site-saturation at positions 5, 18, 19, 20
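Note: peptides expressed intracellularly from a pBAD plasmid library in pooled LB shake-flask culture, induced with 0.3% L-arabinose, DNA abundance read by NGS, three biological replicates, DESeq2 with apeglm shrinkage.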

Sequence | shrunken log2 fold change
RRIRPRPPRLPRPRPRPQCWPRP | 0.0194
RRIRARPPRLPRPRPRPIETPRP | -0.18
RRIRGRPPRLPRPRPRPSCNPRP | 0.588
RRIRGRPPRLPRPRPRPTMMPRP | 0.541
RRIRGRPPRLPRPRPRPWHPPRP | 0.49
RRIRLRPPRLPRPRPRPDHCPRP | -0.0562
RRIRFRPPRLPRPRPRPPSGPRP | 0.422
RRIRFRPPRLPRPRPRPCPMPRP | -0.00789
RRIRFRPPRLPRPRPRPPVLPRP | 0.006
RRIRTRPPRLPRPRPRPSLVPRP | 0.0852
RRIRERPPRLPRPRPRPADPPRP | -0.35
RRIRKRPPRLPRPRPRPYGCPRP | -0.00151
RRIRSRPPRLPRPRPRPTFDPRP | 0.0254
RRIRMRPPRLPRPRPRPVRRPRP | 0.447
RRIRARPPRLPRPRPRPGEAPRP | 0.942
RRIRSRPPRLPRPRPRPEWDPRP | 0.365
RRIRKRPPRLPRPRPRPTVEPRP | 0.377
RRIRQRPPRLPRPRPRPGAFPRP | -0.158
RRIRYRPPRLPRPRPRPHMYPRP | -0.327
RRIRWRPPRLPRPRPRPNNRPRP | -0.559
RRIRPRPPRLPRPRPRPALRPRP | 0.545
RRIRSRPPRLPRPRPRPMLKPRP | -0.0793
RRIRWRPPRLPRPRPRPLIQPRP | 0.279
RRIRFRPPRLPRPRPRPTSGPRP | 0.219
RRIRTRPPRLPRPRPRPLWAPRP | 0.277

Sequence | shrunken log2 fold change
RRIRQRPPRLPRPRPRPPCGPRP | 0.184
RRIRSRPPRLPRPRPRPAEWPRP | 1.02
RRIRLRPPRLPRPRPRPRRKPRP | -0.00224
RRIRQRPPRLPRPRPRPHRSPRP | -0.00875
RRIRGRPPRLPRPRPRPMTNPRP | 0.835
RRIRFRPPRLPRPRPRPRGYPRP | -0.25
RRIRTRPPRLPRPRPRPRAWPRP | 0.132
RRIRKRPPRLPRPRPRPYKIPRP | -0.305
RRIRGRPPRLPRPRPRPCHEPRP | 0.492
RRIRVRPPRLPRPRPRPTGNPRP | 2.77
RRIRKRPPRLPRPRPRPRQNPRP | 0.586
RRIRMRPPRLPRPRPRPSAHPRP | 0.423
RRIRQRPPRLPRPRPRPPTPPRP | 0.538
RRIRFRPPRLPRPRPRPTLYPRP | -0.189
RRIRARPPRLPRPRPRPLPDPRP | 1.07
RRIRIRPPRLPRPRPRPNQAPRP | -0.0486
RRIRLRPPRLPRPRPRPQMTPRP | -0.0928
RRIRYRPPRLPRPRPRPGHDPRP | -0.0736
RRIRWRPPRLPRPRPRPNLHPRP | -0.269
RRIRTRPPRLPRPRPRPNEKPRP | -0.144
RRIRYRPPRLPRPRPRPKLFPRP | -0.0593
RRIRCRPPRLPRPRPRPYPMPRP | -0.424
RRIRERPPRLPRPRPRPAHVPRP | -0.0768
RRIRHRPPRLPRPRPRPEMYPRP | 0.000706
RRIRKRPPRLPRPRPRPNGSPRP | 0.0677

Sequence | shrunken log2 fold change
RRIRCRPPRLPRPRPRPCVMPRP | -0.0643
RRIRIRPPRLPRPRPRPICRPRP | -0.107
RRIRMRPPRLPRPRPRPSAAPRP | 2.7
RRIRQRPPRLPRPRPRPSISPRP | -0.22
RRIRHRPPRLPRPRPRPPVQPRP | -0.0798
RRIRGRPPRLPRPRPRPNPPPRP | 0.336
RRIRCRPPRLPRPRPRPIKRPRP | -0.628
RRIRCRPPRLPRPRPRPLTFPRP | -0.419
RRIRMRPPRLPRPRPRPTCIPRP | -0.00872
RRIRQRPPRLPRPRPRPVQKPRP | 0.25
RRIRIRPPRLPRPRPRPGKEPRP | -0.0221
RRIRVRPPRLPRPRPRPRWMPRP | -0.0415
RRIRLRPPRLPRPRPRPANAPRP | 0.0811
RRIRMRPPRLPRPRPRPVCSPRP | -0.0933
RRIRSRPPRLPRPRPRPCGYPRP | -0.00214
RRIRWRPPRLPRPRPRPIGLPRP | 0.0952
RRIRSRPPRLPRPRPRPPMHPRP | 0.25
RRIRERPPRLPRPRPRPPQPPRP | 0.307
RRIRTRPPRLPRPRPRPMAIPRP | -0.00284
RRIRGRPPRLPRPRPRPRWPPRP | 0.973
RRIRVRPPRLPRPRPRPSEIPRP | -0.623
RRIRERPPRLPRPRPRPFNWPRP | 0.00763
RRIRWRPPRLPRPRPRPFRIPRP | -0.5
RRIRTRPPRLPRPRPRPCLKPRP | -0.0017
RRIRTRPPRLPRPRPRPMIIPRP | -0.0854

Sequence | shrunken log2 fold change
RRIRERPPRLPRPRPRPPKSPRP | 0.21
RRIRRRPPRLPRPRPRPWRPPRP | 0.734
RRIRFRPPRLPRPRPRPTQTPRP | -0.199
RRIRYRPPRLPRPRPRPPHFPRP | -0.139
RRIRMRPPRLPRPRPRPIIFPRP | -0.0918
RRIRHRPPRLPRPRPRPFVAPRP | 1.81
RRIRNRPPRLPRPRPRPSMQPRP | -0.152
RRIRDRPPRLPRPRPRPRLMPRP | 0.163
RRIRERPPRLPRPRPRPGEVPRP | 0.0814
RRIRGRPPRLPRPRPRPLCCPRP | 0.829
RRIRDRPPRLPRPRPRPSCKPRP | -0.1
RRIRWRPPRLPRPRPRPEWDPRP | 1.22
RRIRGRPPRLPRPRPRPISHPRP | -0.0449
RRIRVRPPRLPRPRPRPLPIPRP | -0.398
RRIRYRPPRLPRPRPRPDLIPRP | -0.302
RRIRRRPPRLPRPRPRPHYFPRP | -0.173
RRIRVRPPRLPRPRPRPFCDPRP | -0.218
RRIRRRPPRLPRPRPRPWHNPRP | -0.279
RRIRVRPPRLPRPRPRPMNAPRP | 0.154
RRIRWRPPRLPRPRPRPASGPRP | 0.461
RRIRFRPPRLPRPRPRPYYQPRP | -0.203
RRIRTRPPRLPRPRPRPQTAPRP | -0.0946
RRIRERPPRLPRPRPRPQGVPRP | 0.0697
RRIRARPPRLPRPRPRPHCIPRP | 0.102
RRIRFRPPRLPRPRPRPLKHPRP | -0.475

Sequence | shrunken log2 fold change
RRIRTRPPRLPRPRPRPWSIPRP | -0.325
RRIRRRPPRLPRPRPRPQGQPRP | -0.0135
RRIRHRPPRLPRPRPRPMSDPRP | 0.00234
RRIRKRPPRLPRPRPRPENTPRP | 0.44
RRIRSRPPRLPRPRPRPLAEPRP | 0.502
RRIRLRPPRLPRPRPRPTAGPRP | 0.53
RRIRIRPPRLPRPRPRPTTDPRP | -0.0551
RRIRRRPPRLPRPRPRPIQTPRP | 0.00408
RRIRERPPRLPRPRPRPHIKPRP | -0.932
RRIRCRPPRLPRPRPRPVYSPRP | -0.156
RRIRLRPPRLPRPRPRPLKLPRP | -0.117
RRIRDRPPRLPRPRPRPRCQPRP | -0.128
RRIRVRPPRLPRPRPRPMGSPRP | -0.000992
RRIRMRPPRLPRPRPRPEFFPRP | 0.277
RRIRQRPPRLPRPRPRPPFPPRP | 0.243
RRIRHRPPRLPRPRPRPHCDPRP | -0.0744
RRIRCRPPRLPRPRPRPLSDPRP | 0.0896
RRIRNRPPRLPRPRPRPQHTPRP | -0.402
RRIRQRPPRLPRPRPRPCCGPRP | 0.0293
RRIRARPPRLPRPRPRPRTCPRP | 0.181
RRIRNRPPRLPRPRPRPNGLPRP | 0.00468
RRIRGRPPRLPRPRPRPMQMPRP | 1.5
RRIRVRPPRLPRPRPRPNHNPRP | -0.638
RRIRARPPRLPRPRPRPCHYPRP | -0.00197
RRIRSRPPRLPRPRPRPMADPRP | -0.0211

Sequence | shrunken log2 fold change
RRIRFRPPRLPRPRPRPSRLPRP | 0.014
RRIRNRPPRLPRPRPRPSAPPRP | 0.0188
RRIRVRPPRLPRPRPRPTGFPRP | 0.0174
RRIRSRPPRLPRPRPRPQGNPRP | -0.679
RRIRMRPPRLPRPRPRPPGEPRP | 1.47
RRIRYRPPRLPRPRPRPYQQPRP | -0.0715
RRIRCRPPRLPRPRPRPNNFPRP | -0.493
RRIRRRPPRLPRPRPRPMQAPRP | 1.13
RRIRTRPPRLPRPRPRPAQSPRP | 0.343
RRIRKRPPRLPRPRPRPSNQPRP | -0.018
RRIRMRPPRLPRPRPRPECWPRP | 2.25
RRIRPRPPRLPRPRPRPRYYPRP | -0.385
RRIRGRPPRLPRPRPRPKDTPRP | 0.61
RRIRARPPRLPRPRPRPCLMPRP | -0.0504
RRIRMRPPRLPRPRPRPWFRPRP | -0.305
RRIRARPPRLPRPRPRPYNFPRP | -0.192
RRIRRRPPRLPRPRPRPISSPRP | 0.0497
RRIRHRPPRLPRPRPRPSEVPRP | -0.277
RRIRFRPPRLPRPRPRPEFGPRP | 0.0197
RRIRHRPPRLPRPRPRPAPPPRP | 0.854
RRIRFRPPRLPRPRPRPQWHPRP | -0.461
RRIRFRPPRLPRPRPRPAMTPRP | 0.00388
RRIRIRPPRLPRPRPRPAREPRP | 0.604
RRIRFRPPRLPRPRPRPYETPRP | -0.185
RRIRVRPPRLPRPRPRPSTAPRP | -0.0759
